# Experimental data: publication PMC10845952
# What was measured:
# [1] = target: MecA fused to the RenG N-terminal domain (1-155) (S. mutans) (UniProt Q8DW33); assay: split reporter (BiFC, NanoBiT)
# [2] = target: RNase J1 fused to the RenG N-terminal domain (NTD1, 1-155) (S. mutans); assay: split reporter (BiFC, NanoBiT); RenG split luciferase complementation assay (SLCA) in live S. mutans at mid-log phase, coelenterazine-h, normalised to OD600; signal relative to unfused fragments; relative binding affinity = SLCA value divided by the value of the whole-RenG chimera of the less abundant partner
# Chain of MecA fused to the RenG N-terminal domain (1-155) (S. mutans) (Q8DW33 whole entry, the tested form may be a part): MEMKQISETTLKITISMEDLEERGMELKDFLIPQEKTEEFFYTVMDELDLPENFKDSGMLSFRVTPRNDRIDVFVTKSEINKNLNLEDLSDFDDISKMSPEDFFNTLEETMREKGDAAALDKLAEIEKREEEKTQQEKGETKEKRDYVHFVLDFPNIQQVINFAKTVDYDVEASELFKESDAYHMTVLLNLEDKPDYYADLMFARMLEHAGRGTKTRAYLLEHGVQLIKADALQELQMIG
relative binding affinity (%) [2],Substance,relative binding affinity (%) [1]
,ComX fused to the RenG C-terminal domain (156-314) (natural protein),6.3%
,GyrA fused to the RenG C-terminal domain (156-314) (natural protein),12.9%
,PcrA fused to the RenG C-terminal domain (156-314) (from UniProt Q8DTY6 1-733) (natural protein),6.36%
97.8%,"RNase J2 fused to the RenG C-terminal domain (CTD1, 156-314) (natural protein)",
,SpaP fused to the RenG C-terminal domain (156-314) (from UniProt P23504 998-1532) (natural protein),1.72%
